The values below come from patent publication US20080132679A1 (KANEKA, published 2008).

The target in this experiment is T1, Recombinant Human Insulin Receptor (28-956) (human, UniProt P06213 28-956).
T1 construct: range 28-956; Bought soluble receptor used as the analyte; also called soluble insulin receptor; SIR
The experiment can be described thus: SPR (BIAcore), peptide immobilized on CM5 by amine coupling, SIR as analyte 0.781-100 nM. The protocol: The ligand was immobilized on the sensor chip CM5 research grade (Biacore AB) by the amine coupling method. Thus, the peptide mentioned above was dissolved in 20 mM carbonate buffer (pH 8.5) (500 μg/ml), and 100 μl of the solution was passed through the flow cell at a flow rate of 5 μl/min. The amount of the peptide immobilized was 200 RU (resonance units).
Recombinant Human Insulin Receptor (28-956) (GT/TECHNE Corp.) was used as the analyte soluble insulin receptor (SIR). To 50 mg in a vial was added HBS-EP buffer (250 ml) for thorough dissolution ([…]), and the solution was 10-fold diluted to give a 100 nM solution. Eight concentration levels from 100 nM to 0.781 nM were prepared by subsequent repetitions of doubling dilution, and measurements were carried out using HBS-EP buffer (10 mM HEPES pH 7.4, 0.15M NaCl, 3 mM EDTA, 0.005% Surfactant P20) (Biacore AB) as a running solution; the rate of flow was 10 μl/min. A sensorgram was thus obtained.
Recombinant Human Insulin Receptor (28-956) (GT/TECHNE Corp.) was used as the analyte SIR. Eight concentration levels from 100 nM to 0.781 nM were prepared by subsequent repetitions of doubling dilution, which was started from diluting 100 nM solution, and measurements were carried out using HBS-EP buffer as a running solution; the rate of flow was 10 μl/min. A sensorgram was thus obtained.

B1: peptide P21 (peptide)
peptide: CQHILGSDIVEGIYL
notes: Chemically synthesized; immobilized on a CM5 sensor chip by amine coupling (270 RU) for the Biacore assay; also called Peptide 21
With B1, the Kd turned out to be 12 µM.

B2: peptide P14 (peptide)
peptide: CASDIVEGLYIVLAER
notes: Chemically synthesized by the Fmoc method; immobilized on a CM5 sensor chip by amine coupling (200 RU) for the Biacore assay; also called Peptide 14
B2: the Kd was determined as 1.6 µM.

B3: peptide P15 (peptide)
peptide: CASDIVEGIYL
notes: Chemically synthesized; immobilized on a CM5 sensor chip by amine coupling (130 RU) for the Biacore assay; also called Peptide 15
As for B3, the Kd was found to be 24 µM.
